Assay results from paper PMC6389896 (Communications Biology, 2019).
“And” between values parts separate entries of the source, which are not always exact repeats. Identical values can stand only once. Values belong to the compound of their own block, whether it stands above or below them.

How the values were obtained:
[1] = Sodium fluorescein leakage into CSF after BCCAO (BBB integrity); type: in vivo, mouse; conditions: individual animals; for CSF/blood fluorescent: 60 min after injection
Description: WT and Ager^−/− male mice (8 to 12-weeks-old and weighing 20–30 g) were used for the experiments. The animals were anaesthetised with 2.0% halothane and maintained with 0.5% halothane through a facemask. Brain ischaemia was induced via bilateral occlusion of the common carotid arteries (BCCAO) for 15 min using microvascular clips as described previously. Laser-Doppler flowmetry was used to measure cerebral cortical microperfusion (3 mm lateral to bregma). […] Rectal temperature was maintained at 36.5–37.5 °C by using a heat lamp and a blanket until the mice were completely alert. The control animals underwent a sham-operation that was identical with the exception of the occlusion. To quantify accumulative BBB leakages, 200 µl of sodium fluorescein (Sigma-Aldrich) at a concentration of 6 mg/ml in PBS was injected via the venous sinus of retro-orbital in the mice. […] Sixty minutes later, the CSF and blood were collected according to the protocol for sampling of CSF and blood from mice[80]. The fluorescence of CSF and serum were measured at 460 nm at an excitation wavelength of 355 nm by using a Fluoroscan Ascent FL luminometer (Labsystems. Wilmington, DE, USA). Results are presented as relative fluorescence units (CSF value/serum value) (%).

human esRAGE = human esRAGE (Homo sapiens, UniProt Q15109); experiment: Plate competition assay of oxytocin-RAGE complex formation by RAGE ligands and RAGE domains; type: binding; conditions: esRAGE preincubated with ligand, added 30 min to wells with immobilised oxytocin, HRP-anti-RAGE, n = 3
human esRAGE, sequence (Q15109 23-347 isoform Q15109-3 limits assumed): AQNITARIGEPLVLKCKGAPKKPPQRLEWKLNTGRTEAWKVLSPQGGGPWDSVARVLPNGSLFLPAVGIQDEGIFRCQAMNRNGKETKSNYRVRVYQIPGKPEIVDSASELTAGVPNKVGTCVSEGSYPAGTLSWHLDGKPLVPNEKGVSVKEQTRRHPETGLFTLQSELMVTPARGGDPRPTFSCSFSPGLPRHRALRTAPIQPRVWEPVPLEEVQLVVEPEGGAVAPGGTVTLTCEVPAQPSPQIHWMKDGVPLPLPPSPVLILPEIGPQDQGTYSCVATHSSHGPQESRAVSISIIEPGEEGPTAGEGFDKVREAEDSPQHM
Description: RAGE ligands were S100B (Sigma-Aldrich, St. Louis, MO, USA)[30], AGE-BSA (glyceraldehyde-derived AGE-BSA)[27],[32],[41], amyloid β 1-42 (Sigma-Aldrich), and high-mobility group box 1 (HMGB1, Sigma-Aldrich)[42].
Supplementary Figure 3. (a–d) Plate competition assays. Preincubation mixtures of esRAGE (1 mg/ml) with indicated concentrations of S100B (a),AGE-BSA (AGE) (b), amyloid b (c),or high-mobility group box 1 (HMGB1) (d) were added into wells for 30 min on which […]
The formation of oxytocin–RAGE complexes was detected with horseradish peroxidase (HRP)-conjugated anti-RAGE antibody (n = 3). All […]
and C2 domains (30 mg/ml) were used with this system (n = 3). The formation of oxytocin– RAGE complexes was detected with horseradish peroxidase (HRP)-conjugated anti-RAGE antibody (n = 3). *P < 0.05. Allgraphs show mean ± SEM.
(1 picture or pasted object on this page, not shown here)

[2] = biological target: human endogenous soluble RAGE (esRAGE), recombinant (human); experiment: SPR; human esRAGE amine-coupled to a CM5 chip (~5000 RU), oxytocin flowed over; BIAcore 2000; 10 mM HEPES pH 7.4, 0.15 M NaCl, 3 mM EDTA, 0.005% surfactant P-20; 25 °C, 20 μl/min; apparent KD
[3] = [13C,15N]oxytocin in CSF after subcutaneous injection, LC-MS/MS; type: in vivo, mouse
Description: (§1) High MW proteins in diluted mouse plasma were precipitated with 2% TCA; supernatants obtained after centrifugation were analysed by LC-MS/MS. Mouse CSF samples diluted 1:5 with PBS (25 μl) were analysed directly. […] The eluting 1.0 ml fractions (Fig. 1h) were analysed by LC-MS/MS. The 25 μl samples were separated using a ZORBAX 300SB-C8 column (2.1 × 150 mm, 5 μm; CA, USA) eluted with a linear gradient of 0.1% (v/v) formic acid and acetonitrile (0–30%) at 0.3 ml/min and 50 °C.

[4] = system: monkey brain capillary endothelial cells; experiment: In vitro blood-brain barrier (BBB) model (MBT-24H), transport between luminal and abluminal chambers, control or RAGE shRNA knockdown; conditions: 1.0 ng/ml in luminal chamber, 3 h, control vs RAGE knockdown, ELISA, n = 4
Description: EC, monkey brain capillary endothelial cells; Peri, rat brain pericytes; Astro, rat astrocytes. […] The endothelial cells used in the upper chamber in a were treated with RAGE shRNA (knockdown, KD) or control (C or CNT) vectors to assess the effects of RAGE knockdown. […] Values are mean ± SEM
For the in vitro BBB model (MBT-24H, PharmaCo-Cell Co., Nagasaki, Japan), rat brain pericytes (1.5 × 10^4 cells/cm^2) and rat astrocytes (1.5 × 10^4 cells/cm^2) were seeded on the bottom of the collagen-coated polyester membranes of Transwell inserts (Corning Life Sciences, MA, USA). After 16 h the cells firmly adherent, monkey brain vascular endothelial cells (1.5 × 10^5 cells/cm^2) were then seeded on the upper side of the inserts in 24-well culture plates. The in vitro BBB models were established within 4 days of seeding the cells according to the manufacturer’s instructions. Trans-endothelial electrical resistance (TEER), which primarily reflects the flux of sodium ions through the cell layers in the culture conditions, was measured with an epithelial-volt-ohm metre and an Endohm-6 chamber electrodes (World Precision Instruments, Sarasota, FL, USA). The TEERs of the coated, cell-free filters were subtracted from the measured TEER values of the models and shown as Ω cm^2. The apparent permeability constants (Papp) between luminal and abluminal chambers were calculated from the distribution ratios. Endothelial expression was silenced using RAGE shRNA and the pSilencer 3.0-H1 vector (Ambion, Austin, TX, USA)[41]. […]

soluble RAGE = biological target: T1, soluble RAGE (Homo sapiens, UniProt Q15109); experiment: Gel permeation, anti-RAGE and esRAGE affinity chromatography of human serum with EIA and LC-MS/MS; type: binding; conditions: 50 ml human serum
T1 construct: from tissue; host or cells: human serum
T1 sequence (Q15109 23-347 isoform Q15109-3): as the sequence (Q15109 23-347 isoform Q15109-3 limits assumed) above
Description: Polypeptides were separated using a Superdex 75 pg HiLoad 26/600 column (GE Healthcare Japan, Tokyo) eluted at 1.0 ml/min with 5 mM ammonium acetate pH 7.8. […] Anti-RAGE monoclonal antibody (1.0 mg) or purified esRAGE (0.5 mg) were coupled to NHS-activated HiTrap (GE Healthcare). Sera samples (50 ml) from healthy consenting adults were applied to the HiTrap-anti-RAGE column equilibrated with 50 mM Tris–HCl (pH 7.4) and 0.15 M NaCl. Alternatively, the low molecular weight (<3000, Amicon Ultracel3K) fraction of human serum (50 ml) was applied to the HiTrap-esRAGE column previously equilibrated with phosphate-buffered saline (PBS). After washing the bound proteins were eluted with 100 mM glycine-HCl buffer (pH 2.5) for HiTrap-anti-RAGE or 10 mM Tris–HCl (pH 7.4) and 2.0 M NaCl for HiTrap-esRAGE and the eluates were analysed by EIA or LC-MS/MS and Western blotting.
as §1
Supplementary Figure 1. […]

[5] = biological target: oxytocin receptor (high affinity form) (UniProt P30559); conditions: cited from earlier work
oxytocin receptor (high affinity form), sequence (P30559 whole entry): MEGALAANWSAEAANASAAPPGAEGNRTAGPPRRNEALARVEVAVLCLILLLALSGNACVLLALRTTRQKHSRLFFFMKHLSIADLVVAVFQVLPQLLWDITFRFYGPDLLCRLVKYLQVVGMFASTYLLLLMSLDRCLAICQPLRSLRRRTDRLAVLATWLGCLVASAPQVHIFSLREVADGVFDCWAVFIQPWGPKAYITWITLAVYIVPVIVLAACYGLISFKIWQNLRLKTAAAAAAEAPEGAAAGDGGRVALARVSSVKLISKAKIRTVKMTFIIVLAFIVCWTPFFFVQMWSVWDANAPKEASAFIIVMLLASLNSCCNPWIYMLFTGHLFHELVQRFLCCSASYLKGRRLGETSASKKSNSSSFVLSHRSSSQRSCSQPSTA

oxytocin receptor = oxytocin receptor (UniProt P30559); conditions: cited from earlier work
oxytocin receptor, sequence (P30559 whole entry): as above

oxytocin, sequence (P01178 whole entry, looked up): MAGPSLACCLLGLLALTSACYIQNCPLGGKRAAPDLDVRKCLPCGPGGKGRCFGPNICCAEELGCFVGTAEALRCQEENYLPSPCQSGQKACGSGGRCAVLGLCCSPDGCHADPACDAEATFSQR
Oxytocin (synthetic), sequence (P01178 whole entry, looked up): as above

Compound: S100B: RAGE ligand S100B (Sigma-Aldrich)
inhibition of oxytocin binding to soluble RAGE by RAGE ligand (human esRAGE): weakly or non-specifically inhibited

Compound: [^13C,^15N]oxytocin
[13C,15N]oxytocin in CSF of Ager-/- male mice [3]: undetectable

Compound: arginine-vasopressin
transport by RAGE in the in vitro BBB assay system [4]: did not transport
identification in material eluted from immobilised esRAGE (human serum) (soluble RAGE): did not identify

Compound: oxytocin (from UniProt P01178)
Kd [5]: 1 nM
Kd (oxytocin receptor): 100 nM

Now from value to compound, other results behind:

CSF/blood fluorescent ([1]; Ager-/- Sham): 0.03456% and 0.01791% and 0.02565%
CSF/blood fluorescent ([1]; WT BCCAO): 0.02918% and 0.03954% and 0.02602%
Compound: O=C1OC2(c3ccc(O)cc3Oc3cc(O)ccc32)c2ccccc21 [fluorescein, sodium fluorescein]
CSF/blood fluorescent ([1]; Ager-/- BCCAO): 0.0316% and 0.02179% and 0.01832% and 0.02493%
CSF/blood fluorescent (relative fluorescence units, CSF value/serum value) ([1]; WT Sham, 200 μl of 6 mg/ml via retro-orbital venous sinus, 60 min): 0.03234% and 0.009373% and 0.03651% and 0.03497% and 0.03069% and 0.01619%

inhibition of oxytocin binding to soluble RAGE by RAGE ligand (human esRAGE): weakly or non-specifically inhibited
Compound: AGEs: glyceraldehyde-derived AGE-BSA, RAGE ligand

inhibition of oxytocin binding to soluble RAGE by RAGE ligand (human esRAGE): weakly or non-specifically inhibited
Compound: HMGB1: high-mobility group box 1, RAGE ligand (Sigma-Aldrich)

Kd [2]: 179 nM
Compound: Oxytocin (synthetic) (from UniProt P01178 20-28) (peptide)

inhibition of oxytocin binding to soluble RAGE by RAGE ligand (human esRAGE): weakly or non-specifically inhibited
Compound: amyloid β 1-42
